From patent US20160272683A1 (Novo Nordisk, published 2016) come the findings set out here.

Numbered stars: 1 amine (or outer) side, 2 acyl side, 3 side chain; on linkers, the order of the positions; unused ones are H or OH. Side chains are listed from the residue outwards. Ends that are not written are not given here. * marks the point of attachment. C20 diacid = O=C(O)CCCCCCCCCCCCCCCCCCC(=O)*; C18 diacid = O=C(O)CCCCCCCCCCCCCCCCC(=O)*; γGlu = O=C(O)[C@H](CCC(=O)[*:2])N[*:1]

For this assay, the target named is T1, human amylin receptor (human calcitonin receptor + human RAMP3) (human) (UniProt P30988).
T1 sequence (looked up) 1: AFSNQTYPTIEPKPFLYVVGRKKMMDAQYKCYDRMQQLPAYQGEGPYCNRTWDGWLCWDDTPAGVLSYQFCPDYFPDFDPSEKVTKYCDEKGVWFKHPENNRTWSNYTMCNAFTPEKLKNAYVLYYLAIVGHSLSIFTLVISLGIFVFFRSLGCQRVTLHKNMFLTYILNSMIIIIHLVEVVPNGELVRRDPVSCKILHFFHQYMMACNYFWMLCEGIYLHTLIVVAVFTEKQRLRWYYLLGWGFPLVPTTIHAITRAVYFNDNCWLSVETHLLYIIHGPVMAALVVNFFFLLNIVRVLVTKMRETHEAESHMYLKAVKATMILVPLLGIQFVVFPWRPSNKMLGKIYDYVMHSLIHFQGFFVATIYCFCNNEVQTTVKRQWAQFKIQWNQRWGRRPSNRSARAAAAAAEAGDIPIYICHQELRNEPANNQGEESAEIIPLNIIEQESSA
T1 sequence (looked up) 2: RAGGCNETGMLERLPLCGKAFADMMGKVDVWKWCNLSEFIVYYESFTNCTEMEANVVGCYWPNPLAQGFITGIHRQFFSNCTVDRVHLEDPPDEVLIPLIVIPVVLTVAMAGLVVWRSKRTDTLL
As to the kind of experiment: whole-cell competition vs 125I-rat amylin (Assay Va).

By IC50 is commonly meant the concentration needed to halve the response being measured.

B1: [N-terminal(C20 diacid), des1, 4G, 15Q, 21Q, 23Y, 30S, 31G, 32T, 33Y]mimylin (peptide)
peptide: {C20 diacid}-ASGLSTAALGRLSQELHELQTYPRTETGSGTY-NH2
SMILES: CC(C)C[C@H](NC(=O)CNC(=O)[C@H](CO)NC(=O)[C@H](C)NC(=O)CCCCCCCCCCCCCCCCCCC(=O)O)C(=O)N[C@@H](CO)C(=O)N[C@H](C(=O)N[C@@H](C)C(=O)N[C@@H](C)C(=O)N[C@@H](CC(C)C)C(=O)NCC(=O)N[C@@H](CCCNC(=N)N)C(=O)N[C@@H](CC(C)C)C(=O)N[C@@H](CO)C(=O)N[C@@H](CCC(N)=O)C(=O)N[C@@H](CCC(=O)O)C(=O)N[C@@H](CC(C)C)C(=O)N[C@@H](Cc1c[nH]cn1)C(=O)N[C@@H](CCC(=O)O)C(=O)N[C@@H](CC(C)C)C(=O)N[C@@H](CCC(N)=O)C(=O)N[C@H](C(=O)N[C@@H](Cc1ccc(O)cc1)C(=O)N1CCC[C@H]1C(=O)N[C@@H](CCCNC(=N)N)C(=O)N[C@H](C(=O)N[C@@H](CCC(=O)O)C(=O)N[C@H](C(=O)NCC(=O)N[C@@H](CO)C(=O)NCC(=O)N[C@H](C(=O)N[C@@H](Cc1ccc(O)cc1)C(N)=O)[C@@H](C)O)[C@@H](C)O)[C@@H](C)O)[C@@H](C)O)[C@@H](C)O
B1: the half-inhibitory concentration (IC50) was determined as 0.222 nM.

B2: [N-terminal(C20 diacid-gGlu), 4Q, 9V, 15Q, 21Q, 23Y, 27G, 30S, 31G, 32T, 33Y]mimylin (peptide)
peptide: {C20 diacid-γGlu}-EASQLSTAVLGRLSQELHELQTYPRTGTGSGTY-NH2
SMILES: CC(C)C[C@H](NC(=O)[C@H](CCCNC(=N)N)NC(=O)CNC(=O)[C@H](CC(C)C)NC(=O)[C@@H](NC(=O)[C@H](C)NC(=O)[C@@H](NC(=O)[C@H](CO)NC(=O)[C@H](CC(C)C)NC(=O)[C@H](CCC(N)=O)NC(=O)[C@H](CO)NC(=O)[C@H](C)NC(=O)[C@H](CCC(=O)O)NC(=O)CC[C@H](NC(=O)CCCCCCCCCCCCCCCCCCC(=O)O)C(=O)O)[C@@H](C)O)C(C)C)C(=O)N[C@@H](CO)C(=O)N[C@@H](CCC(N)=O)C(=O)N[C@@H](CCC(=O)O)C(=O)N[C@@H](CC(C)C)C(=O)N[C@@H](Cc1c[nH]cn1)C(=O)N[C@@H](CCC(=O)O)C(=O)N[C@@H](CC(C)C)C(=O)N[C@@H](CCC(N)=O)C(=O)N[C@H](C(=O)N[C@@H](Cc1ccc(O)cc1)C(=O)N1CCC[C@H]1C(=O)N[C@@H](CCCNC(=N)N)C(=O)N[C@H](C(=O)NCC(=O)N[C@H](C(=O)NCC(=O)N[C@@H](CO)C(=O)NCC(=O)N[C@H](C(=O)N[C@@H](Cc1ccc(O)cc1)C(N)=O)[C@@H](C)O)[C@@H](C)O)[C@@H](C)O)[C@@H](C)O
As for B2, the IC50 was 0.338 nM.

B3: [N-terminal(C20 diacid-gGlu), des1, 12K, 23Y, 25K, 30S, 31G, 33Y]mimylin (peptide)
peptide: {C20 diacid-γGlu}-ASELSTAALGKLSAELHELATYPKTETGSGSY-NH2
SMILES: CC(C)C[C@H](NC(=O)[C@H](C)NC(=O)[C@H](C)NC(=O)[C@@H](NC(=O)[C@H](CO)NC(=O)[C@H](CC(C)C)NC(=O)[C@H](CCC(=O)O)NC(=O)[C@H](CO)NC(=O)[C@H](C)NC(=O)CC[C@H](NC(=O)CCCCCCCCCCCCCCCCCCC(=O)O)C(=O)O)[C@@H](C)O)C(=O)NCC(=O)N[C@@H](CCCCN)C(=O)N[C@@H](CC(C)C)C(=O)N[C@@H](CO)C(=O)N[C@@H](C)C(=O)N[C@@H](CCC(=O)O)C(=O)N[C@@H](CC(C)C)C(=O)N[C@@H](Cc1c[nH]cn1)C(=O)N[C@@H](CCC(=O)O)C(=O)N[C@@H](CC(C)C)C(=O)N[C@@H](C)C(=O)N[C@H](C(=O)N[C@@H](Cc1ccc(O)cc1)C(=O)N1CCC[C@H]1C(=O)N[C@@H](CCCCN)C(=O)N[C@H](C(=O)N[C@@H](CCC(=O)O)C(=O)N[C@H](C(=O)NCC(=O)N[C@@H](CO)C(=O)NCC(=O)N[C@@H](CO)C(=O)N[C@@H](Cc1ccc(O)cc1)C(N)=O)[C@@H](C)O)[C@@H](C)O)[C@@H](C)O
With B3, the IC50 is 0.588 nM.

B4: [N-terminal(C18 diacid-gGlu), des1, 5V, 9V, 10V, 20V, 30S, 31G]mimylin (peptide)
peptide: {C18 diacid-γGlu}-ASEVSTAVVGRLSAELHEVATLPRTETGSGSP-NH2
SMILES: CC(C)C[C@H](NC(=O)[C@H](CCCNC(=N)N)NC(=O)CNC(=O)[C@@H](NC(=O)[C@@H](NC(=O)[C@H](C)NC(=O)[C@@H](NC(=O)[C@H](CO)NC(=O)[C@@H](NC(=O)[C@H](CCC(=O)O)NC(=O)[C@H](CO)NC(=O)[C@H](C)NC(=O)CC[C@H](NC(=O)CCCCCCCCCCCCCCCCC(=O)O)C(=O)O)C(C)C)[C@@H](C)O)C(C)C)C(C)C)C(=O)N[C@@H](CO)C(=O)N[C@@H](C)C(=O)N[C@@H](CCC(=O)O)C(=O)N[C@@H](CC(C)C)C(=O)N[C@@H](Cc1c[nH]cn1)C(=O)N[C@@H](CCC(=O)O)C(=O)N[C@H](C(=O)N[C@@H](C)C(=O)N[C@H](C(=O)N[C@@H](CC(C)C)C(=O)N1CCC[C@H]1C(=O)N[C@@H](CCCNC(=N)N)C(=O)N[C@H](C(=O)N[C@@H](CCC(=O)O)C(=O)N[C@H](C(=O)NCC(=O)N[C@@H](CO)C(=O)NCC(=O)N[C@@H](CO)C(=O)N1CCC[C@H]1C(N)=O)[C@@H](C)O)[C@@H](C)O)[C@@H](C)O)C(C)C
With B4, the 50% inhibitory concentration (IC50) was found to be 1.65 nM.

B5: [des1, 4G, 15Q, 21Q, 23Y, 30S, 31K(C20 diacid-gGlu), 32T, 33Y]mimylin (peptide)
peptide: ASGLSTAALGRLSQELHELQTYPRTETGSK([γGlu-C20 diacid])TY-NH2
modifications: N-terminus assumed
SMILES: CC(C)C[C@H](NC(=O)CNC(=O)[C@H](CO)NC(=O)[C@H](C)N)C(=O)N[C@@H](CO)C(=O)N[C@H](C(=O)N[C@@H](C)C(=O)N[C@@H](C)C(=O)N[C@@H](CC(C)C)C(=O)NCC(=O)N[C@@H](CCCNC(=N)N)C(=O)N[C@@H](CC(C)C)C(=O)N[C@@H](CO)C(=O)N[C@@H](CCC(N)=O)C(=O)N[C@@H](CCC(=O)O)C(=O)N[C@@H](CC(C)C)C(=O)N[C@@H](Cc1c[nH]cn1)C(=O)N[C@@H](CCC(=O)O)C(=O)N[C@@H](CC(C)C)C(=O)N[C@@H](CCC(N)=O)C(=O)N[C@H](C(=O)N[C@@H](Cc1ccc(O)cc1)C(=O)N1CCC[C@H]1C(=O)N[C@@H](CCCNC(=N)N)C(=O)N[C@H](C(=O)N[C@@H](CCC(=O)O)C(=O)N[C@H](C(=O)NCC(=O)N[C@@H](CO)C(=O)N[C@@H](CCCCNC(=O)CC[C@H](NC(=O)CCCCCCCCCCCCCCCCCCC(=O)O)C(=O)O)C(=O)N[C@H](C(=O)N[C@@H](Cc1ccc(O)cc1)C(N)=O)[C@@H](C)O)[C@@H](C)O)[C@@H](C)O)[C@@H](C)O)[C@@H](C)O
For B5, the half-maximal inhibitory concentration (IC50) worked out at 5.45 nM.

B6: [N-terminal(C20 diacid-gGlu), des1, 4G, 15T, 21E, 23Y, 30S, 31G, 32T, 33Y]mimylin (peptide)
peptide: {C20 diacid-γGlu}-ASGLSTAALGRLSTELHELETYPRTETGSGTY-NH2
SMILES: CC(C)C[C@H](NC(=O)CNC(=O)[C@H](CO)NC(=O)[C@H](C)NC(=O)CC[C@H](NC(=O)CCCCCCCCCCCCCCCCCCC(=O)O)C(=O)O)C(=O)N[C@@H](CO)C(=O)N[C@H](C(=O)N[C@@H](C)C(=O)N[C@@H](C)C(=O)N[C@@H](CC(C)C)C(=O)NCC(=O)N[C@@H](CCCNC(=N)N)C(=O)N[C@@H](CC(C)C)C(=O)N[C@@H](CO)C(=O)N[C@H](C(=O)N[C@@H](CCC(=O)O)C(=O)N[C@@H](CC(C)C)C(=O)N[C@@H](Cc1c[nH]cn1)C(=O)N[C@@H](CCC(=O)O)C(=O)N[C@@H](CC(C)C)C(=O)N[C@@H](CCC(=O)O)C(=O)N[C@H](C(=O)N[C@@H](Cc1ccc(O)cc1)C(=O)N1CCC[C@H]1C(=O)N[C@@H](CCCNC(=N)N)C(=O)N[C@H](C(=O)N[C@@H](CCC(=O)O)C(=O)N[C@H](C(=O)NCC(=O)N[C@@H](CO)C(=O)NCC(=O)N[C@H](C(=O)N[C@@H](Cc1ccc(O)cc1)C(N)=O)[C@@H](C)O)[C@@H](C)O)[C@@H](C)O)[C@@H](C)O)[C@@H](C)O)[C@@H](C)O
Consider B6, for which the IC50 turned out to be 0.431 nM.
Regarding {C18 diacid-γGlu}-ASELTTAVLGRLEAELHELTTLPRTETGTGTP-NH2 [[N-terminal(C18 diacid-gGlu), des1, 6T, 9V, 14E, 21T, 30T, 31G, 32T]mimylin], the IC50 was 19.7 nM.
